Consider 4 molecules from paper PMC12281766, “Inhibition of FAM19A5 reverses synaptic loss and cognitive decline in mouse models of Alzheimer’s disease” (Alzheimer's Research & Therapy, 2025).

Assay [1] has as its target T1, His-TEV LRRC4B.
T1 sequence (Q9NT99 whole entry, species assumed, looked up): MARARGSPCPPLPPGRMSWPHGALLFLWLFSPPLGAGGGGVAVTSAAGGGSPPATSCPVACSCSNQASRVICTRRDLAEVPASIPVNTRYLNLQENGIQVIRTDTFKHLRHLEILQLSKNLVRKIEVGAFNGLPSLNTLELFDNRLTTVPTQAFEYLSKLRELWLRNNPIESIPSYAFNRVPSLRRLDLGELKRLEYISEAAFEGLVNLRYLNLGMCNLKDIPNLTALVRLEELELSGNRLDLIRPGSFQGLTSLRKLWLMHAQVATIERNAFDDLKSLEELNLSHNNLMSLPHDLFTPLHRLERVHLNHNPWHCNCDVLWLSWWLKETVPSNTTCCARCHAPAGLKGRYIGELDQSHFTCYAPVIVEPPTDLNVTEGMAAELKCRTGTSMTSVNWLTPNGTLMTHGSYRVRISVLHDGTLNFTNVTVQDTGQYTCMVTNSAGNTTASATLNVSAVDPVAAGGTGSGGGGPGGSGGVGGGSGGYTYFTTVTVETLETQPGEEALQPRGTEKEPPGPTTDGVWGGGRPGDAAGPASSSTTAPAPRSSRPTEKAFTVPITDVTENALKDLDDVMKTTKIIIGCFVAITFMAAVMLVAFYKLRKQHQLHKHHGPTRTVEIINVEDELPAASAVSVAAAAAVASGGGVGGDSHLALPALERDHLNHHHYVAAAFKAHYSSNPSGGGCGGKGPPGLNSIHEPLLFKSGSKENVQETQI
As to the kind of experiment: ELISA; captured by His-TEV LRRC4B, detected by HRP-conjugated C-A5-Ab.

For assay [2], the target named is T1, His-TEV LRRC4B. Nature of the assay: ELISA; competition: LRRC4B-PTPRF complex in the presence of FAM19A5; captured by His-TEV LRRC4B, detected by HRP-conjugated anti-human IgG Fc.
For assay [3], the target named is T2, His-TEV LRRC4B.
T2 chain: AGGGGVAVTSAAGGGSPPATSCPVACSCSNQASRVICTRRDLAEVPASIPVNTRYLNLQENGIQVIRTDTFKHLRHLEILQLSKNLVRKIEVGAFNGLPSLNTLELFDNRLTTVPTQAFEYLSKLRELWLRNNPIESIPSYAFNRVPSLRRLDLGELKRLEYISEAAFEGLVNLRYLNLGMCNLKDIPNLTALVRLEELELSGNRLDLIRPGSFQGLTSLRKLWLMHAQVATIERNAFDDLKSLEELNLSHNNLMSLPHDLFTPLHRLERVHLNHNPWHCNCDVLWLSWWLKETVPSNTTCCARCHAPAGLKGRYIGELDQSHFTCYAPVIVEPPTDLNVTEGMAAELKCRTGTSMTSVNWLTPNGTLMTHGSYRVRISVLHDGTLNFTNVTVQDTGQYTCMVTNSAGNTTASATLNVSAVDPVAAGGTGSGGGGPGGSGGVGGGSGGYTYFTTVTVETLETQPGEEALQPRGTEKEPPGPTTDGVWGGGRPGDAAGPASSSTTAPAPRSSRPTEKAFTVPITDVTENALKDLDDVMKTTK
Nature of the assay: competition ELISA (dissociation of LRRC4B-PTPRF complex). As to conditions: chain shown with the change; read at the highest FAM19A5 concentration, about 1e4 nM; signal is PTPRF remaining bound to His-TEV LRRC4B, so a lower OD means more displacement by FAM19A5 …; parent: est. 0.16; read off a plot.

Assay [4] concerns the target T3, recombinant FAM19A5 (family with sequence similarity 19 member A5) (UniProt Q7Z5A7 44-132).
T3 construct: FAM19A5 (TAFA5), secretory protein; also called TAFA5; WT FAM19A5; source: recombinant
Nature of the assay: ELISA; competition: FAM19A5 captured by LRRC4B(36–576)-hFc in the presence of inhibitor, detected by HRP-conjugated C-A5-Ab. As to conditions: both partners purified.

T3 sequence (Q7Z5A7 44-132): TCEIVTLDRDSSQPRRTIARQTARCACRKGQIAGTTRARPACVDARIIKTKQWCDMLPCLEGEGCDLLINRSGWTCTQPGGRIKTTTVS

In the case of “recombinant FAM19A5 (family with sequence similarity 19 member A5) (from UniProt Q7Z5A7 44-132) (natural protein)”, the EC50 in assay [1] was 0.41 nM. Also, the IC50 in assay [2] amounted to 281 nM.
In the case of “MT FAM19A5 (R58A, R59A) (from UniProt Q7Z5A7 44-132) (natural protein)”, in assay [1], the EC50 turned out to be 0.595 nM.

B1: recombinant FAM19A5 (family with sequence similarity 19 member A5), Q7Z5A7 R58A; R59A; R125A; K127A (protein)
chain: TCEIVTLDRDSSQPAATIARQTARCACRKGQIAGTTRARPACVDARIIKTKQWCDMLPCLEGEGCDLLINRSGWTCTQPGGAIATTTVS
On to B1, for which, in assay [3], the response was 0.52 OD (450 nm).

B2: LRRC4B(453–576)-hFc (Fc fusion, UniProt Q9NT99 453-576, looked up)
chain: VSAVDPVAAGGTGSGGGGPGGSGGVGGGSGGYTYFTTVTVETLETQPGEEALQPRGTEKEPPGPTTDGVWGGGRPGDAAGPASSSTTAPAPRSSRPTEKAFTVPITDVTENALKDLDDVMKTTK
notes: also called WT FB-containing protein; FB protein; source: recombinant
Regarding B2, the IC50 in assay [4] turned out to be 8.1 nM.
